Laboratory results reported in US20230390362A1, “USE OF TRIGONAL AGONIST HAVING ACTIVITIES TO ALL OF GLUCAGON, GLP-1, AND GIP RECEPTORS IN TREATMENT OF SEQUELAE FOLLOWING RESPIRATORY INFECTIOUS DISEASES” (HANMI PHARM. CO., LTD., priority 2020, published 2023).
Positions of bridges follow the written chain, without caps; N, C: chain ends. Non-standard residues stand in square brackets, D forms with d. No end group written: not given here. *: point of attachment. Acetyl(2-(4-imidazolyl)) = O=C(Cc1c[nH]cn1)*; Aib = CC(C)(N)C(=O)O

target: human GLP-1 receptor (human, UniProt P43220 24-463); test: cell-based or functional assay

Binder | In vitro activity relative to native peptide (%), vs. GLP-1 (cAMP EC50) [%]
Y[Aib]QGTFTSDCSKYLDERAAKDFVQWLLDHHPSSGQPPPS (bridge 16-20) [trigonal agonist of SEQ ID NO: 72] | 11.5
{Acetyl(2-(4-imidazolyl))}-[Aib]QGTFTSDYSIAMDEIACKDFVNWLLNTK (bridge 15-19) [trigonal agonist of SEQ ID NO: 61] | 59.8
Y[Aib]QGTFTSDYSKYLDEKAAKDFVQWLLDHHPSSGQPPPSC (bridge 16-20) [trigonal agonist of SEQ ID NO: 77] | 38.7
Y[Aib]QGTFTSDYSKYLDECRAKDFVQWLLDHHPSSGQPPPS (bridge 16-20) [trigonal agonist of SEQ ID NO: 66] | 15.8
{Acetyl(2-(4-imidazolyl))}-[Aib]QGTFTSDYSIAMDEIHQKDFVNWLLAQC (bridge 15-19) [trigonal agonist of SEQ ID NO: 85] | 4.3
{Acetyl(2-(4-imidazolyl))}-[Aib]QGTFTSDYSKYLDEKRQKEFVQWLLNTC (bridge 15-19) [trigonal agonist of SEQ ID NO: 81] | 7.8
Y[Aib]QGTFTSDYSKCLDEKAAKEFVQWLLDHHPSSGQPPPS (bridge 16-20) [trigonal agonist of SEQ ID NO: 68] | 27.9
{Acetyl(2-(4-imidazolyl))}-[Aib]QGTFTSDCSKYLDERAAQDFVQWLLDGGPSSGAPPPS [trigonal agonist of SEQ ID NO: 63] | 15.3
{Acetyl(2-(4-imidazolyl))}-[Aib]QGTFTSDKSKYLDERAAQDFVQWLLDGGPSSGAPPPS [trigonal agonist of SEQ ID NO: 62] | 5.2
{Acetyl(2-(4-imidazolyl))}-[Aib]QGTFTSDYSKYLDECRAKEFVQWLLDHHPSSGQPPPS (bridge 15-19) [trigonal agonist of SEQ ID NO: 73] | 22.6
{Acetyl(2-(4-imidazolyl))}-[Aib]EGTFTSDYSIAMDEIHQKDFVDWLLAEC (bridge 15-19) [trigonal agonist of SEQ ID NO: 84] | 4.2
Y[Aib]QGTFTSDYSKYLDERACKDFVQWLLDHHPSSGQPPPS (bridge 16-20) [trigonal agonist of SEQ ID NO: 71] | 90.1
H[Aib]EGTFTSDYSIAMDEIHQKDFVDWLLAEKC (bridge 16-20) [trigonal agonist of SEQ ID NO: 80] | 8.1
Y[Aib]QGTFTSDYSKYLDECAAKDFVQWLLDHHPSSGQPPPS (bridge 16-20) [trigonal agonist of SEQ ID NO: 67] | 28.5

target: human GCG receptor (human, UniProt P47871 26-477); test: cell-based or functional assay
Sequence (P47871 26-477): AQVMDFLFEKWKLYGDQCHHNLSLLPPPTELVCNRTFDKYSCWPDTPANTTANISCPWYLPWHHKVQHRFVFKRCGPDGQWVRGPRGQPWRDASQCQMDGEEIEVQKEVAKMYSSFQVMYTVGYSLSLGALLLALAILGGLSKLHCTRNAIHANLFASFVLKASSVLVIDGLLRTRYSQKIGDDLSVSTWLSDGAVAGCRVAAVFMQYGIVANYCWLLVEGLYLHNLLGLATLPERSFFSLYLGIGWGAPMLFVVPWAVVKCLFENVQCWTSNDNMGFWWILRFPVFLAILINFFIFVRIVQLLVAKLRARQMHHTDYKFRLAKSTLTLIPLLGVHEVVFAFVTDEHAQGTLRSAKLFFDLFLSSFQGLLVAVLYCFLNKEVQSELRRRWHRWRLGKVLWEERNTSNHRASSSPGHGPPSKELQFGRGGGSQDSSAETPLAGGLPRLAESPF

Binder | In vitro activity relative to native peptide (%), vs. Glucagon (cAMP EC50) [%]
Y[Aib]QGTFTSDCSKYLDERAAKDFVQWLLDHHPSSGQPPPS (bridge 16-20) [trigonal agonist of SEQ ID NO: 72] | 1
{Acetyl(2-(4-imidazolyl))}-[Aib]QGTFTSDYSIAMDEIACKDFVNWLLNTK (bridge 15-19) [trigonal agonist of SEQ ID NO: 61] | < 0.1
Y[Aib]QGTFTSDYSKYLDEKAAKDFVQWLLDHHPSSGQPPPSC (bridge 16-20) [trigonal agonist of SEQ ID NO: 77] | 12.2
Y[Aib]QGTFTSDYSKYLDECRAKDFVQWLLDHHPSSGQPPPS (bridge 16-20) [trigonal agonist of SEQ ID NO: 66] | 172
{Acetyl(2-(4-imidazolyl))}-[Aib]QGTFTSDYSIAMDEIHQKDFVNWLLAQC (bridge 15-19) [trigonal agonist of SEQ ID NO: 85] | < 0.1
{Acetyl(2-(4-imidazolyl))}-[Aib]QGTFTSDYSKYLDEKRQKEFVQWLLNTC (bridge 15-19) [trigonal agonist of SEQ ID NO: 81] | 0.3
Y[Aib]QGTFTSDYSKCLDEKAAKEFVQWLLDHHPSSGQPPPS (bridge 16-20) [trigonal agonist of SEQ ID NO: 68] | 8.8
{Acetyl(2-(4-imidazolyl))}-[Aib]QGTFTSDCSKYLDERAAQDFVQWLLDGGPSSGAPPPS [trigonal agonist of SEQ ID NO: 63] | < 0.1
{Acetyl(2-(4-imidazolyl))}-[Aib]QGTFTSDKSKYLDERAAQDFVQWLLDGGPSSGAPPPS [trigonal agonist of SEQ ID NO: 62] | < 0.1
{Acetyl(2-(4-imidazolyl))}-[Aib]QGTFTSDYSKYLDECRAKEFVQWLLDHHPSSGQPPPS (bridge 15-19) [trigonal agonist of SEQ ID NO: 73] | 5.4
{Acetyl(2-(4-imidazolyl))}-[Aib]EGTFTSDYSIAMDEIHQKDFVDWLLAEC (bridge 15-19) [trigonal agonist of SEQ ID NO: 84] | < 0.1
Y[Aib]QGTFTSDYSKYLDERACKDFVQWLLDHHPSSGQPPPS (bridge 16-20) [trigonal agonist of SEQ ID NO: 71] | 12.7
H[Aib]EGTFTSDYSIAMDEIHQKDFVDWLLAEKC (bridge 16-20) [trigonal agonist of SEQ ID NO: 80] | 0
Y[Aib]QGTFTSDYSKYLDECAAKDFVQWLLDHHPSSGQPPPS (bridge 16-20) [trigonal agonist of SEQ ID NO: 67] | 46.2

target: T1, human GIP receptor (human, UniProt P48546 22-466); test: cell-based or functional assay
T1 sequence (looked up): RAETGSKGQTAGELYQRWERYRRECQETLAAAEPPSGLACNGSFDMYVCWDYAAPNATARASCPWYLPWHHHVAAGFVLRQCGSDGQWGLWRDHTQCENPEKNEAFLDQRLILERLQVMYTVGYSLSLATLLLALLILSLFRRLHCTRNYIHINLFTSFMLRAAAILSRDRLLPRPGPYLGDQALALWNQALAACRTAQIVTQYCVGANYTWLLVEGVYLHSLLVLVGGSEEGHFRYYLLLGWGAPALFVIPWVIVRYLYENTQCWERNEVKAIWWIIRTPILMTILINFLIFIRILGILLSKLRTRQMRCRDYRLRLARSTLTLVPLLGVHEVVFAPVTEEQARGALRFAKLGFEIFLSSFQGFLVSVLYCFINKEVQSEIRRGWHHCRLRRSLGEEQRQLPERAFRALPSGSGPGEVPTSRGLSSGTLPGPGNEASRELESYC

Binder | In vitro activity relative to native peptide (%), vs. GIP (cAMP EC50) [%]
Y[Aib]QGTFTSDCSKYLDERAAKDFVQWLLDHHPSSGQPPPS (bridge 16-20) [trigonal agonist of SEQ ID NO: 72] | 1.6
{Acetyl(2-(4-imidazolyl))}-[Aib]QGTFTSDYSIAMDEIACKDFVNWLLNTK (bridge 15-19) [trigonal agonist of SEQ ID NO: 61] | 2.8
Y[Aib]QGTFTSDYSKYLDEKAAKDFVQWLLDHHPSSGQPPPSC (bridge 16-20) [trigonal agonist of SEQ ID NO: 77] | 35.5
Y[Aib]QGTFTSDYSKYLDECRAKDFVQWLLDHHPSSGQPPPS (bridge 16-20) [trigonal agonist of SEQ ID NO: 66] | 17.2
{Acetyl(2-(4-imidazolyl))}-[Aib]QGTFTSDYSIAMDEIHQKDFVNWLLAQC (bridge 15-19) [trigonal agonist of SEQ ID NO: 85] | 0.3
{Acetyl(2-(4-imidazolyl))}-[Aib]QGTFTSDYSKYLDEKRQKEFVQWLLNTC (bridge 15-19) [trigonal agonist of SEQ ID NO: 81] | < 0.1
Y[Aib]QGTFTSDYSKCLDEKAAKEFVQWLLDHHPSSGQPPPS (bridge 16-20) [trigonal agonist of SEQ ID NO: 68] | 107
{Acetyl(2-(4-imidazolyl))}-[Aib]QGTFTSDCSKYLDERAAQDFVQWLLDGGPSSGAPPPS [trigonal agonist of SEQ ID NO: 63] | < 0.1
{Acetyl(2-(4-imidazolyl))}-[Aib]QGTFTSDKSKYLDERAAQDFVQWLLDGGPSSGAPPPS [trigonal agonist of SEQ ID NO: 62] | < 0.1
{Acetyl(2-(4-imidazolyl))}-[Aib]QGTFTSDYSKYLDECRAKEFVQWLLDHHPSSGQPPPS (bridge 15-19) [trigonal agonist of SEQ ID NO: 73] | 3
{Acetyl(2-(4-imidazolyl))}-[Aib]EGTFTSDYSIAMDEIHQKDFVDWLLAEC (bridge 15-19) [trigonal agonist of SEQ ID NO: 84] | < 0.1
Y[Aib]QGTFTSDYSKYLDERACKDFVQWLLDHHPSSGQPPPS (bridge 16-20) [trigonal agonist of SEQ ID NO: 71] | 94.7
H[Aib]EGTFTSDYSIAMDEIHQKDFVDWLLAEKC (bridge 16-20) [trigonal agonist of SEQ ID NO: 80] | 0.1
Y[Aib]QGTFTSDYSKYLDECAAKDFVQWLLDHHPSSGQPPPS (bridge 16-20) [trigonal agonist of SEQ ID NO: 67] | 39.8
